Bridges are numbered along the chain shown (N, C = ends). [ ]: non-standard residue; d: D form. 2Nal = N[C@@H](Cc1ccc2ccccc2c1)C(=O)O; NMeF = CN[C@@H](Cc1ccccc1)C(=O)O; pGlu = O=C1CC[C@@H](C(=O)O)N1; d(hCys) = N[C@H](CCS)C(=O)O; dNle = CCCC[C@@H](N)C(=O)O; hCys = N[C@@H](CCS)C(=O)O; Nle = CCCC[C@H](N)C(=O)O; dAbu = CC[C@@H](N)C(=O)O
T1: human APJ receptor (hAPJ) (human, UniProt P35414 1-380)
T1 sequence (looked up): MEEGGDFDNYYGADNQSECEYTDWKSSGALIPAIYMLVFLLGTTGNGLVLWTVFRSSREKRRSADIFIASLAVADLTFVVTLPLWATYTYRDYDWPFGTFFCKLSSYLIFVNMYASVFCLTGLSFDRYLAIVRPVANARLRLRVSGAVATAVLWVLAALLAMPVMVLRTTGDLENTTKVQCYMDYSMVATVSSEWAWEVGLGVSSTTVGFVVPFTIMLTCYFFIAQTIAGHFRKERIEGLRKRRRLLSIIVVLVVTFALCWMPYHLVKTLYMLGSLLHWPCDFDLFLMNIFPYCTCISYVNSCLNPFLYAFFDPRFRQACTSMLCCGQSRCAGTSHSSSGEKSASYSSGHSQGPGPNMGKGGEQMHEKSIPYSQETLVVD

B1: pE-R-P-C*-L-S-C*-K-G-P-(D-Nle)-a-f-OH (peptide)
peptide: ERPCLSCKGPLAF
modifications: pE at 1; disulfide C4-C7; D-Nle at 11; D-Ala (a) at 12; D-Phe (f) at 13; free C-terminal acid
B2: pE-R-C*-R-L-S-C*-K-A-P-(D-Nle)-a-f-OH (peptide)
peptide: [pGlu]RCRLSCKAP[dNle][dA][dF]-OH
modifications: disulfide 3-7
SMILES: CCCC[C@@H](NC(=O)[C@@H]1CCCN1C(=O)[C@H](C)NC(=O)[C@H](CCCCN)NC(=O)[C@@H]1CSSC[C@H](NC(=O)[C@H](CCCNC(=N)N)NC(=O)[C@@H]2CCC(=O)N2)C(=O)N[C@@H](CCCNC(=N)N)C(=O)N[C@@H](CC(C)C)C(=O)N[C@@H](CO)C(=O)N1)C(=O)N[C@H](C)C(=O)N[C@H](Cc1ccccc1)C(=O)O
B3: Apelin cyclic peptide conjugated to a fatty acid via a BCN-PEG linker: … (peptide)
peptide: ERPCLSCKGPL
modifications: pE at 1; disulfide C4-C7; Lys 8 N6 carries the BCN carbamate, joined by click reaction to azido-dPEG23-amide of docos-21-ene-1,11,11-tricarboxylic acid (fatty acid-PEG linker, compound A); D-Nle at 11 with C-terminal NH(Phenethyl) amide
B4: Ac-C*-R-P-R-L-S-C*-K-G-P-Nle-P-NH2 (peptide)
peptide: Ac-CRPRLSCKGP[Nle]P-NH2
modifications: disulfide 1-7
SMILES: CCCC[C@H](NC(=O)[C@@H]1CCCN1C(=O)CNC(=O)[C@H](CCCCN)NC(=O)[C@@H]1CSSC[C@H](NC(C)=O)C(=O)N[C@@H](CCCNC(=N)N)C(=O)N2CCC[C@H]2C(=O)N[C@@H](CCCNC(=N)N)C(=O)N[C@@H](CC(C)C)C(=O)N[C@@H](CO)C(=O)N1)C(=O)N1CCC[C@H]1C(N)=O
B5: H-R-P-C*-L-S-C*-K-(D-Nle)-a-f-OH (peptide)
peptide: H-RPCLSCK[dNle][dA][dF]-OH
modifications: disulfide 3-6
SMILES: CCCC[C@@H](NC(=O)[C@H](CCCCN)NC(=O)[C@@H]1CSSC[C@H](NC(=O)[C@@H]2CCCN2C(=O)[C@@H](N)CCCNC(=N)N)C(=O)N[C@@H](CC(C)C)C(=O)N[C@@H](CO)C(=O)N1)C(=O)N[C@H](C)C(=O)N[C@H](Cc1ccccc1)C(=O)O
B6: Ac-C*-R-P-R-L-S-hC*-K-G-P-Nle-P-F-OH (peptide)
peptide: Ac-CRPRLS[hCys]KGP[Nle]PF-OH
modifications: disulfide 1-7
SMILES: CCCC[C@H](NC(=O)[C@@H]1CCCN1C(=O)CNC(=O)[C@H](CCCCN)NC(=O)[C@@H]1CCSSC[C@H](NC(C)=O)C(=O)N[C@@H](CCCNC(=N)N)C(=O)N2CCC[C@H]2C(=O)N[C@@H](CCCNC(=N)N)C(=O)N[C@@H](CC(C)C)C(=O)N[C@@H](CO)C(=O)N1)C(=O)N1CCC[C@H]1C(=O)N[C@@H](Cc1ccccc1)C(=O)O
B7: pE-R-C*-R-L-S-(D-hC)*-K-G-P-f-a-f-OH (peptide)
peptide: [pGlu]RCRLS[d(hCys)]KGP[dF][dA][dF]-OH
modifications: disulfide 3-7
SMILES: CC(C)C[C@@H]1NC(=O)[C@H](CCCNC(=N)N)NC(=O)[C@@H](NC(=O)[C@H](CCCNC(=N)N)NC(=O)[C@@H]2CCC(=O)N2)CSSCC[C@H](C(=O)N[C@@H](CCCCN)C(=O)NCC(=O)N2CCC[C@H]2C(=O)N[C@H](Cc2ccccc2)C(=O)N[C@H](C)C(=O)N[C@H](Cc2ccccc2)C(=O)O)NC(=O)[C@H](CO)NC1=O
B8: Ac-hC*-R-P-R-L-S-hC*-K-G-P-Nle-P-F-OH (peptide)
peptide: Ac-[hCys]RPRLS[hCys]KGP[Nle]PF-OH
modifications: disulfide 1-7
SMILES: CCCC[C@H](NC(=O)[C@@H]1CCCN1C(=O)CNC(=O)[C@H](CCCCN)NC(=O)[C@@H]1CCSSCC[C@H](NC(C)=O)C(=O)N[C@@H](CCCNC(=N)N)C(=O)N2CCC[C@H]2C(=O)N[C@@H](CCCNC(=N)N)C(=O)N[C@@H](CC(C)C)C(=O)N[C@@H](CO)C(=O)N1)C(=O)N1CCC[C@H]1C(=O)N[C@@H](Cc1ccccc1)C(=O)O
B9: pE-R-c*-R-L-S-C*-K-G-P-(D-Nle)-(D-abu)-f-OH (peptide)
peptide: [pGlu]R[dC]RLSCKGP[dNle][dAbu][dF]-OH
modifications: disulfide 3-7
SMILES: CCCC[C@@H](NC(=O)[C@@H]1CCCN1C(=O)CNC(=O)[C@H](CCCCN)NC(=O)[C@@H]1CSSC[C@@H](NC(=O)[C@H](CCCNC(=N)N)NC(=O)[C@@H]2CCC(=O)N2)C(=O)N[C@@H](CCCNC(=N)N)C(=O)N[C@@H](CC(C)C)C(=O)N[C@@H](CO)C(=O)N1)C(=O)N[C@H](CC)C(=O)N[C@H](Cc1ccccc1)C(=O)O
B10: pE-R-P-hC*-L-S-C*-K-G-P-f-a-f-OH (peptide)
peptide: ERPCLSCKGPFAF
modifications: pE at 1; hC (L-homocysteine) at 4; disulfide hC4-C7; D-Phe (f) at 11; D-Ala (a) at 12; D-Phe (f) at 13; free C-terminal acid
B11: pE-R-C*-R-L-S-C*-K-a-P-(D-Nle)-a-f-OH (peptide)
peptide: [pGlu]RCRLSCK[dA]P[dNle][dA][dF]-OH
modifications: disulfide 3-7
SMILES: CCCC[C@@H](NC(=O)[C@@H]1CCCN1C(=O)[C@@H](C)NC(=O)[C@H](CCCCN)NC(=O)[C@@H]1CSSC[C@H](NC(=O)[C@H](CCCNC(=N)N)NC(=O)[C@@H]2CCC(=O)N2)C(=O)N[C@@H](CCCNC(=N)N)C(=O)N[C@@H](CC(C)C)C(=O)N[C@@H](CO)C(=O)N1)C(=O)N[C@H](C)C(=O)N[C@H](Cc1ccccc1)C(=O)O
B12: pE-R-P-C*-L-S-C*-F-G-P-(D-Nle)-a-f-OH (peptide)
peptide: [pGlu]RPCLSCFGP[dNle][dA][dF]-OH
modifications: disulfide 4-7
SMILES: CCCC[C@@H](NC(=O)[C@@H]1CCCN1C(=O)CNC(=O)[C@H](Cc1ccccc1)NC(=O)[C@@H]1CSSC[C@H](NC(=O)[C@@H]2CCCN2C(=O)[C@H](CCCNC(=N)N)NC(=O)[C@@H]2CCC(=O)N2)C(=O)N[C@@H](CC(C)C)C(=O)N[C@@H](CO)C(=O)N1)C(=O)N[C@H](C)C(=O)N[C@H](Cc1ccccc1)C(=O)O
B13: Ac-C*-R-P-R-L-S-C*-K-G-P-Nle-P-a-OH (peptide)
peptide: Ac-CRPRLSCKGP[Nle]P[dA]-OH
modifications: disulfide 1-7
SMILES: CCCC[C@H](NC(=O)[C@@H]1CCCN1C(=O)CNC(=O)[C@H](CCCCN)NC(=O)[C@@H]1CSSC[C@H](NC(C)=O)C(=O)N[C@@H](CCCNC(=N)N)C(=O)N2CCC[C@H]2C(=O)N[C@@H](CCCNC(=N)N)C(=O)N[C@@H](CC(C)C)C(=O)N[C@@H](CO)C(=O)N1)C(=O)N1CCC[C@H]1C(=O)N[C@H](C)C(=O)O
B14: pE-R-C*-R-L-S-C*-K-G-P-(D-Nle)-NH2 (peptide)
peptide: [pGlu]RCRLSCKGP[dNle]-NH2
modifications: disulfide 3-7
SMILES: CCCC[C@@H](NC(=O)[C@@H]1CCCN1C(=O)CNC(=O)[C@H](CCCCN)NC(=O)[C@@H]1CSSC[C@H](NC(=O)[C@H](CCCNC(=N)N)NC(=O)[C@@H]2CCC(=O)N2)C(=O)N[C@@H](CCCNC(=N)N)C(=O)N[C@@H](CC(C)C)C(=O)N[C@@H](CO)C(=O)N1)C(N)=O
B15: pE-R-P-c*-L-S-(D-hC)*-K-G-P-(D-Nle)-a-y-OH (peptide)
peptide: ERPCLSCKGPLAY
modifications: pE at 1; D-Cys (c) at 4; D-hC at 7; disulfide 4-7; D-Nle at 11; D-Ala (a) at 12; D-Tyr (y) at 13; free C-terminal acid
B16: pE-R-P-(D-hC)*-L-S-hC*-K-G-P-(D-Nle)-(D-Nva)-f-OH (peptide)
peptide: ERPCLSCKGPLVF
modifications: pE at 1; D-hC at 4; hC at 7; disulfide 4-7; D-Nle at 11; D-Nva (D-norvaline) at 12; D-Phe (f) at 13; free C-terminal acid

Target: T1, human APJ receptor (hAPJ)
Test: cell-based or functional assay

Binder	hAPJ Ca^2+ Flux EC50 [nM]
B1	1.9
B2	85.8
B3	2480
B4	74.6
B5	66.7
B6	21.4
B7	2290
B8	11.8
B9	86.5
Ac-CRPRLSCKGP[Nle]P-{NMe(Phenethyl)} (disulfide 1-7) [Ac-C*-R-P-R-L-S-C*-K-G-P-Nle-P-NMe(Phenethyl)]	23.4
B10	4.2
B11	72.2
Ac-CRPRLSCKGP[Nle]P[2Nal]-OH (disulfide 1-7) [Ac-C*-R-P-R-L-S-C*-K-G-P-Nle-P-Nal-OH]	1.6
B12	2
ERPCLSCKGPLP (pE at 1; disulfide C4-C7; Nle at 11; C-terminal NH(Phenethyl) amide on P12) [pE-R-P-C*-L-S-C*-K-G-P-Nle-P-NH(Phenethyl)]	0.4
B13	13.1
ERPCLSCKGPLPF (pE at 1; disulfide C4-C7; Nle at 11; free C-terminal acid) [pE-R-P-C*-L-S-C*-K-G-P-Nle-P-F-OH]	3.1
ERPCLSCKGPL (pE at 1; disulfide C4-C7; Nle at 11 with C-terminal NH(Phenethyl) amide) [pE-R-P-C*-L-S-C*-K-G-P-Nle-NH(Phenethyl)]	0.5
ERPCLSCKGPLPF (pE at 1; disulfide C4-C7; Nle at 11; (N-Me)F at 13; free C-terminal acid) [pE-R-P-C*-L-S-C*-K-G-P-Nle-P-(N-Me)F-OH]	4.2
B14	227
B15	937
ERPCLSCKGPL (pE at 1; disulfide C4-C7; D-Nle at 11 with C-terminal NH(Phenethyl) amide) [pE-R-P-C*-L-S-C*-K-G-P-(D-Nle)-NH(Phenethyl)]	3
B16	175
ERPCLSCKGPLF (pE at 1; disulfide C4-C7; D-Nle at 11; D-Phe (f) at 12; free C-terminal acid) [pE-R-P-C*-L-S-C*-K-G-P-(D-Nle)-f-OH]	0.6
Ac-CRPRLSCKGP[Nle]P[NMeF]-OH (disulfide 1-7) [Ac-C*-R-P-R-L-S-C*-K-G-P-Nle-P-(N-Me)F-OH]	64.5
